This assay concerns the target T1, wild-type human CCR7 (pcDNA3.1 Neo-hCCR7, 20100121357) (human, UniProt P32248 25-378).
T1 construct: Expressed on transfected 293T, CHO AM1/D or HEK293T cells; also called huCCR7; CCR7 receptor
T1 sequence: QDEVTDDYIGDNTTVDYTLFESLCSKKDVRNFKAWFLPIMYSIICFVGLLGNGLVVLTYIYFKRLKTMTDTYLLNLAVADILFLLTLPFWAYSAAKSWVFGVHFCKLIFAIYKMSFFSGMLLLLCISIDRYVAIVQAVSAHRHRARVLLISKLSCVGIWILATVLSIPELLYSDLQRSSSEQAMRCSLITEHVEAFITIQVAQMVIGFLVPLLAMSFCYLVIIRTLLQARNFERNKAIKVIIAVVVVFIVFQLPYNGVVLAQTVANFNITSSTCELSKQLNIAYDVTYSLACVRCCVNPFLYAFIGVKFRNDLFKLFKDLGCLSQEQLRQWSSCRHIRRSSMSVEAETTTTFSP
The assay is described as follows: hybridoma screening on cells expressing human CCR7.

B1: antibody 6E1.2 (antibody, human IgG2, lambda, V domains shown)
VH: QGQLVESGGGVVQPGRSLRLSCAASGFTFRSYGMHWVRQAPGKGLEWVAVIWYDGSKKYYADSVKGRFTISRDNSKNTLFLQMNSLRAEDTAVYYCARDGGIAAFLQDNWFDPWGQGTLVTVSS
VL: SYELTQPPSVSVSPGQTASITCSGNKLGDKYASWYHQKPGQSPVLVIYQDNKRPSGIPERFSGSNSGNTATLTISGTQTMDEADYFCQAWDRTVVFGGGTKLTVLG
notes: Human antibody from XenoMouse hybridoma; Light = 26 and heavy = 58 is inferred from the order of the listing
As to B1, the binding result is given as “binds”.

The values above are taken from patent US20170342155A1 (Amgen, published 2017).
